Assay results as given in patent US12060408B2, “Screening assays, modulators and modulation of activation of Receptor for Advanced Glycation End-products (RAGE)” (Monash University, priority 2017, dated 2024).
Ends that are not written are not given here.

Columns and labels:
CCR7 = target: T1, CCR7 (Homo sapiens, UniProt P32248); assay: Receptor-HIT BRET, β-arr2/Venus with RAGE/Rluc8 and CCR7; type: cell-based; conditions: in the presence of CCR7
T1 construct: expressed in transfected cells; host or cells: HEK293FT, transient
Source text: (§1) Bioluminescence Resonance Energy Transfer (BRET)
(§2) BRET is an established technology for studying protein-protein proximity in live cells, particularly involving GPCRs (Pfleger and Eidne, 2006). One protein of interest was linked to a bioluminescent donor enzyme, Rluc8, a variant of Renilla luciferase, and a second linked to an acceptor fluorophore, Venus, a variant of green fluorescent protein. If in close proximity (<10 nm), energy resulting from the rapid oxidation of a cell-permeable coelenterazine substrate by the donor can transfer to the acceptor, which in turn fluoresces at a longer characteristic wavelength.
(§3) Plasmids were transiently co-expressed in human embryonic kidney (HEK) 293FT cells and BRET measurements taken at 37° C. using a POLARstar Omega or LUMIstar plate reader (BMG Labtech, Mornington, Victoria, Australia) with 460-490 nm (‘donor emission’) and 520-550 nm (‘acceptor emission’) filters, or a VICTOR Light plate reader (Perkin Elmer, Glen Waverley, Victoria, Australia) with 400-475 nm (‘donor emission’) and 520-540 nm (‘acceptor emission’) filters, or a CLARIOstar plate reader (BMG Labtech, Mornington, Victoria, Australia) with 420-480 nm (‘donor emission’) and 520-620 nm (‘acceptor emission’) filters. […]
(§4) For BRET kinetic assays, the final pre-treatment reading is presented at the zero time point (time of ligand/vehicle addition). […]

CXCR4 = target: T2, CXCR4 (Homo sapiens, UniProt P61073); assay: Receptor-HIT BRET, β-arr2/Venus with RAGE/Rluc8 and CXCR4; type: cell-based; conditions: in the presence of CXCR4
T2 construct: expressed in transfected cells; host or cells: HEK293FT, transient
Source text: as §1, §2, §3, §4

CCR6 = target: T3, CCR6 (Homo sapiens, UniProt P51684); assay: Receptor-HIT BRET, β-arr2/Venus with RAGE/Rluc8 and CCR6; type: cell-based; conditions: in the presence of CCR6
T3 construct: expressed in transfected cells; host or cells: HEK293FT, transient
Source text: as §1, §2, §3, §4

[1] = system: RAGE ligand-dependent signalling; conditions: Putranto et al., 2013; cited from earlier work
U-87MG cells = conditions: Putranto et al., 2013; cited from earlier work
CXCR1 = target: T4, CXCR1 (Homo sapiens, UniProt P25024); assay: Receptor-HIT BRET, β-arr2/Venus with RAGE/Rluc8 and CXCR1; type: cell-based; conditions: in the presence of CXCR1
T4 construct: expressed in transfected cells; host or cells: HEK293FT, transient
Source text: as §1, §2, §3, §4

CXCR2 = target: T5, CXCR2 (Homo sapiens, UniProt P25025); assay: Receptor-HIT BRET, β-arr2/Venus with RAGE/Rluc8 and CXCR2; type: cell-based; conditions: in the presence of CXCR2
T5 construct: expressed in transfected cells; host or cells: HEK293FT, transient
Source text: as §1, §2, §3, §4

CXCR3 = target: T6, CXCR3 (Homo sapiens, UniProt P49682); assay: Receptor-HIT BRET, β-arr2/Venus with RAGE/Rluc8 and CXCR3; type: cell-based; conditions: in the presence of CXCR3
T6 construct: expressed in transfected cells; host or cells: HEK293FT, transient
Source text: as §1, §2, §3, §4

CCR1 = target: T7, CCR1 (Homo sapiens, UniProt P32246); assay: Receptor-HIT BRET, β-arr2/Venus with RAGE/Rluc8 and CCR1; type: cell-based; conditions: in the presence of CCR1
T7 construct: expressed in transfected cells; host or cells: HEK293FT, transient
Source text: as §1, §2, §3, §4

[2] = system: Human microvascular endothelial cells (HMEC); assay: Ang II-induced pro-inflammatory signalling (ICAM-1, MCP-1 RT-PCR) in HMEC; type: cell-based; conditions: overexpression of construct
Procedure: Primary aortic endothelial cells (PMAEC) were isolated from the aortae of (wild-type) C57bl6 mice and AGER KO mice and cultured in Dulbecco's modified Eagle's medium (DMEM)/F12 endothelial cell growth supplement (ECGS) supplemented media. Chinese Hamster Ovary (CHO) cells were cultured using F12 media (10% FCS with 2 mM glutamine). Human microvascular endothelial cells (HMEC) were cultured in MCDB 131 medium (10% FCS with 10 mM glutamine, EGF and hydrocortisone).
Cellular Expression of Pro-Inflammatory Markers and Mediators by Quantitative Real-Time PCR
After 2 hours of exposure to Ang II (1 μM) or the RAGE ligand, S100A8/A9 (5 ng/ml) cells were placed in Trizol, mRNA extracted and cDNA synthesized. Changes in the gene expression of the NFκB subunit, p65 (RelA) or NFκB-activated target genes (e.g ICAM-1, VCAM-1) were estimated by quantitative real-time RT-PCR, performed using the TaqMan system based on real-time detection of accumulated fluorescence (ABI Prism 7700, Perkin-Elmer Inc, PE Biosystems, Foster City, CA, USA). Gene expression was normalized to 18S mRNA and reported as fold change compared to the level of expression in untreated control mice/cells, which were given an arbitrary value of 1.

AT1 = target: T8, AT1 (Homo sapiens, UniProt P30556); assay: BRET between mCherry/RAGE338-361 and luciferase-tagged AT1; type: cell-based; set-up: expressed in transfected cells; host or cells: HEK293FT, transient
T8 sequence (P30556 1-359): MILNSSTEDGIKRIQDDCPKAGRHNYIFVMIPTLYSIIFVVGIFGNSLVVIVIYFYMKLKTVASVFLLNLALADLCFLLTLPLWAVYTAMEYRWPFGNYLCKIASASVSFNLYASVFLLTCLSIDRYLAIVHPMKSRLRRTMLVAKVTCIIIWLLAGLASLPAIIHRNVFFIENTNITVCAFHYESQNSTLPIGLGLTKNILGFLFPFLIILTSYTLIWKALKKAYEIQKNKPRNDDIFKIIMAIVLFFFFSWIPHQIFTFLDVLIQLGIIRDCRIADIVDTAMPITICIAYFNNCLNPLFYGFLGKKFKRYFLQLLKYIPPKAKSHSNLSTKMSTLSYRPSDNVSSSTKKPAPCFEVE
Procedure: FIG. 21A. BRET between mCherry/RAGE338-361 and Nluc/AT1 is increased with Ang II. Data are presented as mean±SEM; n=3-5.
FIG. 21D. Lack of Ang II-induced BRET signal between AT1/Rluc8 and mCherry/RAGE338-361 where cells were transfected with 50 ng AT1/Rluc8 cDNA, 300 ng RAGE/Venus cDNA and 0, 50, 100, 200, 300 or 400 ng of mCherry/RAGE338-361 CDNA or pcDNA3 control plasmid as indicated. Data are presented as mean±SEM; n=3-4. Filters: mCherry 650 nm/Rluc8 450 nm.
as §1
BRET is an established technology for studying protein-protein proximity in live cells, particularly involving GPCRs (Pfleger and Eidne, 2006). […]
as §3

TIRAP = TIRAP (Homo sapiens, UniProt P58753); conditions: Putranto et al., 2013; cited from earlier work
CXCR6 = target: T9, CXCR6 (Homo sapiens, UniProt O00574); assay: Receptor-HIT BRET, β-arr2/Venus with RAGE/Rluc8 and CXCR6; type: cell-based; conditions: in the presence of CXCR6
T9 construct: expressed in transfected cells; host or cells: HEK293FT, transient
Source text: as §1, §2, §3, §4

CCR10 = target: T10, CCR10 (Homo sapiens, UniProt P46092); assay: Receptor-HIT BRET, β-arr2/Venus with RAGE/Rluc8 and CCR10; type: cell-based; conditions: in the presence of CCR10
T10 construct: expressed in transfected cells; host or cells: HEK293FT, transient
Source text: as §1, §2, §3, §4

T4 sequence (P25024 whole entry, species assumed): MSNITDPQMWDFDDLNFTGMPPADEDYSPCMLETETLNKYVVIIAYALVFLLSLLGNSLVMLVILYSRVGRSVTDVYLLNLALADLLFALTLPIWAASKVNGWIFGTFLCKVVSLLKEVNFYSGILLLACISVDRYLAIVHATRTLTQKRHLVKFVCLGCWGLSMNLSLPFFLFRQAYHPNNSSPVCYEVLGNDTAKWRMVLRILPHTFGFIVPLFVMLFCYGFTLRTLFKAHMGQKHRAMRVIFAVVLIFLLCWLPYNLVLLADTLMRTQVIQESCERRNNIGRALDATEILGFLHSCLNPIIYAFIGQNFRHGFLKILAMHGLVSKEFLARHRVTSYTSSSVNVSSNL
T4 sequence (P32121 whole entry partner, species assumed): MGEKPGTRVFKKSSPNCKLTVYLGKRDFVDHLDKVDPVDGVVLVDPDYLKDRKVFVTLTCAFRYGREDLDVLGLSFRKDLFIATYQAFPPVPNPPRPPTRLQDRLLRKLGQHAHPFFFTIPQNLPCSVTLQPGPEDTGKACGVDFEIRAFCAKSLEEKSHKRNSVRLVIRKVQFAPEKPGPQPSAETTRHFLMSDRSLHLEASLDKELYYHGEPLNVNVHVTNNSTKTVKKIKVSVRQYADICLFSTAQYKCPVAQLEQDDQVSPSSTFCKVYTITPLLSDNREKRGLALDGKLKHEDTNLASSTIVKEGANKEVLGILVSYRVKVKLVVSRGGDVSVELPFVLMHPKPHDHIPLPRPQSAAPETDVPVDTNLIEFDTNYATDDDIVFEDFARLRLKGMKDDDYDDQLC
T1 sequence (P32248 25-378): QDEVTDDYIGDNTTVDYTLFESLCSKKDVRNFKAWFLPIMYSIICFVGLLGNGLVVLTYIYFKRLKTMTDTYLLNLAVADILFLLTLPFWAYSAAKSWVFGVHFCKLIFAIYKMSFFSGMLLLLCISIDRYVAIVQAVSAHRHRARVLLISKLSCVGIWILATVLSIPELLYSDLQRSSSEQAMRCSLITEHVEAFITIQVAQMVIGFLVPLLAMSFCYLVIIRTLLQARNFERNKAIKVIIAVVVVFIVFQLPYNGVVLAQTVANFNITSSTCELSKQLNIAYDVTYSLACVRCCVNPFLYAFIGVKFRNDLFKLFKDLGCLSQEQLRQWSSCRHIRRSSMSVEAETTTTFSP
T1 sequence (P32121 whole entry partner): as the sequence (P32121 whole entry partner, species assumed) above
Chain of TIRAP (P58753 whole entry, species assumed): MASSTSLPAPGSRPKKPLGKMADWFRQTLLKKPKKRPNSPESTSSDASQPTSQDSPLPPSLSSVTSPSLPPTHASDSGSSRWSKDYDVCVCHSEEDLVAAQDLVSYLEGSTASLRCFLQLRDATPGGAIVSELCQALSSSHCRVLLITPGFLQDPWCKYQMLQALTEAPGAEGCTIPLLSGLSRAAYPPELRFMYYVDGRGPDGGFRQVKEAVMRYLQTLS
T7 sequence (P32246 whole entry): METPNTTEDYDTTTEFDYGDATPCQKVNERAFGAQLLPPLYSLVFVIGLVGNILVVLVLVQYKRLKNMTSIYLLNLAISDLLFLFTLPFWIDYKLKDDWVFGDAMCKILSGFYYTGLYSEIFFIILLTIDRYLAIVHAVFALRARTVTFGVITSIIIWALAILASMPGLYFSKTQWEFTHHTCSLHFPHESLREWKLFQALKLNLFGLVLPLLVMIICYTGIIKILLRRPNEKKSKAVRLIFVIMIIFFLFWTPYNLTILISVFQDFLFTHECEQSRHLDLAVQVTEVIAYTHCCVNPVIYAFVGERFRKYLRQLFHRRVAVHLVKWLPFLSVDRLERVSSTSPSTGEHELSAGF
T7 sequence (P32121 whole entry partner): as the sequence (P32121 whole entry partner, species assumed) above
T5 sequence (P25025 whole entry): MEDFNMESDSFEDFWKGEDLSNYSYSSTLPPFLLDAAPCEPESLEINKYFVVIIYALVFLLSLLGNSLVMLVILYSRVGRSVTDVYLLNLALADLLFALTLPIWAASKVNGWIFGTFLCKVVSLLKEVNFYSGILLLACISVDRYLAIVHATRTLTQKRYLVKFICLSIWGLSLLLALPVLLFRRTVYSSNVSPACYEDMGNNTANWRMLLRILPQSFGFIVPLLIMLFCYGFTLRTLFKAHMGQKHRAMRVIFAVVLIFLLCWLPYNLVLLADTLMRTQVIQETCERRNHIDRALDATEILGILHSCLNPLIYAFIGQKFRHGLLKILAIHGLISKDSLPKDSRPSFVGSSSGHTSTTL
T5 sequence (P32121 whole entry partner): as the sequence (P32121 whole entry partner, species assumed) above
T2 sequence (P61073 whole entry): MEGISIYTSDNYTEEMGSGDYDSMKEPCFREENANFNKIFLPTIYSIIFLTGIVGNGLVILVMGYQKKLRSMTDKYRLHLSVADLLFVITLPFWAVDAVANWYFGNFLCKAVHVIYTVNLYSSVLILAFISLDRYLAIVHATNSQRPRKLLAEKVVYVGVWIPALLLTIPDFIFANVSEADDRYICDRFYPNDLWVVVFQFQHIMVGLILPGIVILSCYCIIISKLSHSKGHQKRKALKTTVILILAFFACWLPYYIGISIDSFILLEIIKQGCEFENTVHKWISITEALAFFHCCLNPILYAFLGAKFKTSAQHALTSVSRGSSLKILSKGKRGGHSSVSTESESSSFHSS
T2 sequence (P32121 whole entry partner): as the sequence (P32121 whole entry partner, species assumed) above
T6 sequence (P49682 whole entry, species assumed): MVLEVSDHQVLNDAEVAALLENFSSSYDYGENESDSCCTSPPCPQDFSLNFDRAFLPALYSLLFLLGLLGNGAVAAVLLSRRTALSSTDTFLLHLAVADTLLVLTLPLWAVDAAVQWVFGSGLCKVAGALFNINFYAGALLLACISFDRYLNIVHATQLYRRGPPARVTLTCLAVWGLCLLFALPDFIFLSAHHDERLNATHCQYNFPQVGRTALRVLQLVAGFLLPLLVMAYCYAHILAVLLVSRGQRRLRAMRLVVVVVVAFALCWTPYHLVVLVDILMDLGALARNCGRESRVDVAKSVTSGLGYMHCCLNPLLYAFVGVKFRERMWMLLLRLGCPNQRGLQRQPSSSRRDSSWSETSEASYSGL
T6 sequence (P32121 whole entry partner, species assumed): as the sequence (P32121 whole entry partner, species assumed) above
T9 sequence (O00574 whole entry): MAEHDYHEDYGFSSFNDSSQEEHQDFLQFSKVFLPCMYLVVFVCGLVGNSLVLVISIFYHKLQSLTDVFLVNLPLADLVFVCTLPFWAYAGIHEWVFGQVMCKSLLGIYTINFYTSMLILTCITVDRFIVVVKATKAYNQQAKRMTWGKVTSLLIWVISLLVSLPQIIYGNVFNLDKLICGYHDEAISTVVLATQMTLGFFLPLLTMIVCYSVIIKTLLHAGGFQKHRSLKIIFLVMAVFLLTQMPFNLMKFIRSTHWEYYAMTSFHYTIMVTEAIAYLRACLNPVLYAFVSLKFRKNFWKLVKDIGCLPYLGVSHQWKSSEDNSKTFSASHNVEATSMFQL
T9 sequence (P32121 whole entry partner): as the sequence (P32121 whole entry partner, species assumed) above
T3 sequence (P51684 whole entry): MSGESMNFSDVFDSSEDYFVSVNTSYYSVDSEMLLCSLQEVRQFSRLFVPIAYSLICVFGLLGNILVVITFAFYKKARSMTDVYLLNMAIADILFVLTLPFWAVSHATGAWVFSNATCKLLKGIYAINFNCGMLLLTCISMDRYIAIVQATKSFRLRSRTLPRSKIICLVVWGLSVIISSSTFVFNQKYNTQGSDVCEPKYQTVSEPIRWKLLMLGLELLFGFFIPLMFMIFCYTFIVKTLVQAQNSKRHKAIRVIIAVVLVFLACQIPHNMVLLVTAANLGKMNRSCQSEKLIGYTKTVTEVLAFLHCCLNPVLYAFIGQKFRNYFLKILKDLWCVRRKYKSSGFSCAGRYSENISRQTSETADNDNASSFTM
T3 sequence (P32121 whole entry partner): as the sequence (P32121 whole entry partner, species assumed) above
T10 sequence (P46092 whole entry): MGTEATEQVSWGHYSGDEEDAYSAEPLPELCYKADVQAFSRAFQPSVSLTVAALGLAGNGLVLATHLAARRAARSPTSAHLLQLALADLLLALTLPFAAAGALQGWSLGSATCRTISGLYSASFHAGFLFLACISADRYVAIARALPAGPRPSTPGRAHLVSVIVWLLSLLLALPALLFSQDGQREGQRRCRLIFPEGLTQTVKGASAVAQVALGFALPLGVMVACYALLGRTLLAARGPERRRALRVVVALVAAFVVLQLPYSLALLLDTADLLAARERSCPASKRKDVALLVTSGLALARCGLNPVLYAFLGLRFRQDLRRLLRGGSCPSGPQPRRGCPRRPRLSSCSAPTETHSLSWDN
T10 sequence (P32121 whole entry partner): as the sequence (P32121 whole entry partner, species assumed) above

In the case of “CCL19: chemokine ligand used to activate CCR7”, the “recruitment of β-arr2/Venus proximal to RAGE/Rluc8” value (“recruitment … to RAGE/Rluc8” for short) (CCR7) is reported as “recruitment”.

In the case of “CXCL 12: chemokine ligand used to activate CXCR4”, the “β-arr2/Venus proximity to RAGE/Rluc8” value (CXCR4) is reported as “reduction”.

With “CCL20: chemokine ligand used to activate CCR6” the “recruitment … to RAGE/Rluc8” value (CCR6) was “recruitment”.

In the case of “S391E-RAGE387-395: fragment of RAGE cytosolic tail of Putranto et al., 2013, mimicking the phosphorylated state of RAGE (ELNQEEEPE; cytosolic tail peptide; UniProt Q15109 387-395, looked up, variant S391E)”, the “inhibition of particular aspects of RAGE ligand-dependent signalling (apoptosis, cell migration and invasion)” value [1] is given as “inhibitor” and the “growth of U-87MG cells (intracellular adenosine triphosphate content)” value (U-87MG cells) is given as “not significantly affected”.

In the case of “CXCL8: chemokine ligand used to activate CXCR1 and CXCR2”, the “recruitment … to RAGE/Rluc8” value (CXCR1) is reported as “Weak” and the “recruitment … to RAGE/Rluc8” value (CXCR2) is reported as “recruitment”.

For “CXCL11: chemokine ligand used to activate CXCR3”, the “recruitment … to RAGE/Rluc8” value (CXCR3) was “Lack of”.

In the case of “CCL3: chemokine ligand used to activate CCR1”, the “recruitment … to RAGE/Rluc8” value (CCR1) is reported as “recruitment”.

In the case of “mCherry/RAGE338-361: mCherry fusion of RAGE338-361 (LGTLALALGILGGLGTAALLIGVI; also: mCherry fusion)”, the “inhibition of Ang II-induced ICAM-1 expression” value [2] is reported as “inhibited”, the “Ang II-induced BRET signal with AT1/Rluc8” value (AT1; cells also transfected with RAGE/Venus cDNA, filters mCherry 650 nm/Rluc8 450 nm) is reported as “Lack of” and the “BRET with Nluc/AT1” value (AT1; with Ang II) is reported as “increased”.

For “S391A-RAGE387-395: fragment of RAGE cytosolic tail of Putranto et al., 2013 (ELNQAEEPE; cytosolic tail peptide; UniProt Q15109 387-395, looked up, variant S391A)”, the “binding to TIRAP” value (TIRAP) is listed as “did not show any appreciable binding” and the “attenuation of apoptosis induced by RAGE ligand S100B” value [1] is listed as “did not attenuate”.

B1: CXCL16: chemokine ligand used to activate CXCR6 (protein)
chain: NEGSVTGSCYCGKRISSDSPPSVQFMNRLRKHLRAYHRCLYYTRFQLLSWSVCGGNKDPWVQELMSCLDLKECGHAYSGIVAHQKHLLP
With B1 the “recruitment … to RAGE/Rluc8” value (CXCR6) was “recruitment”.

B2: CCL27: chemokine ligand used to activate CCR10 (protein)
chain: FLLPPSTACCTQLYRKPLSDKLLRKVIQVELQEADGDCHLQAFVLHLAQRSICIHPQNPSLSQWFEHQERKLHGTLPKLNFGMLRKMG
For B2, the “recruitment … to RAGE/Rluc8” value (CCR10) was “Lack of”.
